# Results taken from IntAct's records for PubMed 25910212.
# B1: Cytidine deaminase (Homo sapiens), P32320 (parent)
# chain: MAQKRPACTLKPECVQQLLVCSQEAKKSAYCPYSHFPVGAALLTQEGRIFKGCNIENACYPLGICAERTAIQKAVSEGYKDFRAIAIASDMQDDFISPCGACRQVMREFGTNWPVYMTKPDGTYIVMTVQELLPSSFGPEDLQKTQ
# partner: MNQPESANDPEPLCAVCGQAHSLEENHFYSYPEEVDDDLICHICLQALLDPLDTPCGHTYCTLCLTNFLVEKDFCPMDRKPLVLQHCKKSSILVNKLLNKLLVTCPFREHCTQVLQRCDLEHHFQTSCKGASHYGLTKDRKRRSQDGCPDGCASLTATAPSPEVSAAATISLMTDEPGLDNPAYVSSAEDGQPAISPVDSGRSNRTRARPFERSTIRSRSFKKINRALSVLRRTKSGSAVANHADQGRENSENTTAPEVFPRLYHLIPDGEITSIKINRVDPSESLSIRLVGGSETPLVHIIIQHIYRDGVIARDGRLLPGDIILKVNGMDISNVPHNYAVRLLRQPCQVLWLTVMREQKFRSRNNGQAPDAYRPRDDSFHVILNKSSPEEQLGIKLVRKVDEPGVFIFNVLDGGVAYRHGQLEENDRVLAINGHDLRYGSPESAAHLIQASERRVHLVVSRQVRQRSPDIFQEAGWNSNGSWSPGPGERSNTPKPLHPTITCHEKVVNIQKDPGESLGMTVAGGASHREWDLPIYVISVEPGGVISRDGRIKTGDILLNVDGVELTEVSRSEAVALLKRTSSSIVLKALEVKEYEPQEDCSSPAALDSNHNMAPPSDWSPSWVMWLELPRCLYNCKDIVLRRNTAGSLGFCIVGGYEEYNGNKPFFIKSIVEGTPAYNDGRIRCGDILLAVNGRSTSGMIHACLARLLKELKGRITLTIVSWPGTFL
# B2: Proton-coupled zinc antiporter SLC30A2 (Homo sapiens), Q9BRI3 (parent)
# chain: MEAKEKQHLLDARPAIRSYTGSLWQEGAGWIPLPRPGLDLQAIELAAQSNHHCHAQKGPDSHCDPKKGKAQRQLYVASAICLLFMIGEVVGGYLAHSLAVMTDAAHLLTDFASMLISLFSLWMSSRPATKTMNFGWQRAEILGALVSVLSIWVVTGVLVYLAVERLISGDYEIDGGTMLITSGCAVAVNIIMGLTLHQSGHGHSHGTTNQQEENPSVRAAFIHVIGDFMQSMGVLVAAYILYFKPEYKYVDPICTFVFSILVLGTTLTILRDVILVLMEGTPKGVDFTAVRDLLLSVEGVEALHSLHIWALTVAQPVLSVHIAIAQNTDAQAVLKTASSRLQGKFHFHTVTIQIEDYSEDMKDCQACQGPSD
# partner: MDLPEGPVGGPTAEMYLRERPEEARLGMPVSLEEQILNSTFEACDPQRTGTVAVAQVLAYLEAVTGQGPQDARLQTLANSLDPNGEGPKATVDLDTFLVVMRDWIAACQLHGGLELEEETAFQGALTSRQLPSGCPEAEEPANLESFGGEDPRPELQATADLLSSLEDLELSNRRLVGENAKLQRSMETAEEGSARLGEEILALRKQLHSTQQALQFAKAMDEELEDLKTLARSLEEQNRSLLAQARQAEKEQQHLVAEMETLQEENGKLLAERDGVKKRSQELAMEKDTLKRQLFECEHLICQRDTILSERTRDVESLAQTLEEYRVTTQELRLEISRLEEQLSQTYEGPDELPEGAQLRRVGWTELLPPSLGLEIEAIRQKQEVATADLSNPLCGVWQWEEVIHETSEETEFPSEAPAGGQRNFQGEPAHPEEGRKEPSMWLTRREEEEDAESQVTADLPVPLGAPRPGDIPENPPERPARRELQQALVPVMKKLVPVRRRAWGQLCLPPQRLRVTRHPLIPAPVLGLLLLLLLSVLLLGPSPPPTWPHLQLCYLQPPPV
# B3: Galactose-1-phosphate uridylyltransferase (Homo sapiens), P07902 (parent)
# chain: MSRSGTDPQQRQQASEADAAAATFRANDHQHIRYNPLQDEWVLVSAHRMKRPWQGQVEPQLLKTVPRHDPLNPLCPGAIRANGEVNPQYDSTFLFDNDFPALQPDAPSPGPSDHPLFQAKSARGVCKVMCFHPWSDVTLPLMSVPEIRAVVDAWASVTEELGAQYPWVQIFENKGAMMGCSNPHPHCQVWASSFLPDIAQREERSQQAYKSQHGEPLLMEYSRQELLRKERLVLTSEHWLVLVPFWATWPYQTLLLPRRHVRRLPELTPAERDDLASIMKKLLTKYDNLFETSFPYSMGWHGAPTGSEAGANWNHWQLHAHYYPPLLRSATVRKFMVGYEMLAQAQRDLTPEQAAERLRALPEVHYHLGQKDRETATIA
# B4: Emerin (Homo sapiens), P50402 (parent)
# chain: MDNYADLSDTELTTLLRRYNIPHGPVVGSTRRLYEKKIFEYETQRRRLSPPSSSAASSYSFSDLNSTRGDADMYDLPKKEDALLYQSKGYNDDYYEESYFTTRTYGEPESAGPSRAVRQSVTSFPDADAFHHQVHDDDLLSSSEEECKDRERPMYGRDSAYQSITHYRPVSASRSSLDLSYYPTSSSTSFMSSSSSSSSWLTRRAIRPENRAPGAGLGQDRQVPLWGQLLLFLVFVIVLFFIYHFMQAEEGNPF
# partner: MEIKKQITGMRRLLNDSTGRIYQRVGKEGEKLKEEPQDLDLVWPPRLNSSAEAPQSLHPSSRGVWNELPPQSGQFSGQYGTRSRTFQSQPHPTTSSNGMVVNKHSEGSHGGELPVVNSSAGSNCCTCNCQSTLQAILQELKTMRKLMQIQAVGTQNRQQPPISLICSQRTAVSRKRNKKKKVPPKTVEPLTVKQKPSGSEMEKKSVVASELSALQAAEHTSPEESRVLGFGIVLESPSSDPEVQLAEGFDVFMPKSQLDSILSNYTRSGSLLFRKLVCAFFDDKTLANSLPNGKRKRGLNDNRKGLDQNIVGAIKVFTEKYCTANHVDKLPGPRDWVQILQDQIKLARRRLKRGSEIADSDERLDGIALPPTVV
# B5: Peripheral myelin protein 22 (Homo sapiens), Q01453 (parent)
# chain: MLLLLLSIIVLHVAVLVLLFVSTIVSQWIVGNGHATDLWQNCSTSSSGNVHHCFSSSPNEWLQSVQATMILSIIFSILSLFLFFCQLFTLTKGGRFYITGIFQILAGLCVMSAAAIYTVRHPEWHLNSDYSYGFAYILAWVAFPLALLSGVIYVILRKRE
# partner: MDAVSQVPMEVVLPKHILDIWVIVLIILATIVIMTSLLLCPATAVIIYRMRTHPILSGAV
# Variants of: B1
# Conditions: with lnx1_human LNX1, Q8TBB1
row,effect of a mutation on the interaction,Variant
1,with no effect,A70T

# Variants of: B2
# Conditions: with kash5_human KASH5, Q8N6L0
row,effect of a mutation on the interaction,Variant
1,with no effect,H54R

# Variants of: B3
# Conditions: with TNK2, Q07912-2
# TNK2, Q07912-2, sequence (Q07912 other isoform, or with tags, fused parts or gaps): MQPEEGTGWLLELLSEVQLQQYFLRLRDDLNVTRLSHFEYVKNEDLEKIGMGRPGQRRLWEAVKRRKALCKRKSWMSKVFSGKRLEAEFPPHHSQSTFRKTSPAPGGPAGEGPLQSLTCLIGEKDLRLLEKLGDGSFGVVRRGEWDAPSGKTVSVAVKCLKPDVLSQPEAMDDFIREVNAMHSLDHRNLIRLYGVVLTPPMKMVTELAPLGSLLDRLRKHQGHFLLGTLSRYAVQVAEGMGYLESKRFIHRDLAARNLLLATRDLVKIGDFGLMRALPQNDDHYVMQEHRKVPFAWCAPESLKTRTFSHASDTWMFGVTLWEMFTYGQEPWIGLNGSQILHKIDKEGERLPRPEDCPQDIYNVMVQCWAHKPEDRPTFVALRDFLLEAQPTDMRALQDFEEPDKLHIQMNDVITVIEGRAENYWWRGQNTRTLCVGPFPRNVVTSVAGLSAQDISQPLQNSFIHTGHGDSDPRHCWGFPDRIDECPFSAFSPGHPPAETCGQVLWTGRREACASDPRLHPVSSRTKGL
row,effect of a mutation on the interaction,Variant
1,with no effect,H319Q
2,with no effect,Y34N

# Continued, variant first:
row,Variant,effect of a mutation on the interaction
1,G175D,with no effect
2,R272H,with no effect

# Variants of: B4
# Conditions: with BEND7, Q8N7W2-2
row,effect of a mutation on the interaction,Variant
1,with no effect,S54F
2,with no effect,P183H

# The remaining lines, values behind:
row,Variant,effect of a mutation on the interaction
1,D72V,with no effect
2,P183T,with no effect

# Variants of: B5
# Conditions: with smim3_human SMIM3, Q9BZL3
row,effect of a mutation on the interaction,Variant
1,disrupting interaction strength,R157G
